The record followed here is PMC4868133.

In this test the target is MUC2 VWD3 domain alone, produced as a shorter recombinant protein without the VWD1D2 domains (human).

As a reminder, the stoichiometry N is a count of units in the complex or per binding partner. With “MUC2 VWD3 domain alone, produced as a shorter recombinant protein without the VWD1D2 domains (domain or fragment)”, the stoichiometry N came out at 3.
